From US7951572B2, “Construction of gold nanoparticle-based peptide chip, and assaying enzyme activity and inhibitor effect using secondary ion mass spectrometric analysis thereof” (Korea Advanced Institute of Science and Technology, priority 2006, dated 2011)
pIC50: −log10 of the molar value.

Experiments:
PKA kinase = PKA kinase (Homo sapiens, UniProt P17612); assay: Quantitative analysis of inhibitory reaction against kinase on gold nanoparticle-peptide chip by secondary ion mass spectrometry; format: biochemical; details: ATP 10 μM, kinase 1 U, 30° C. for 2 hours, non-linear regression
Procedure: As one example for analyzing an inhibitory reaction against kinase activity, the effect of 4-cyano-3-methylisoquinoline (CMIQ, Sigma), an inhibitor against PKA kinase, was illustrated.
After silicon rubber having circular holes (3 mm diameter and 1 mm height) was attached to the surface of a slide glass (75×25 mm) consisting of a glass substrate, a gold nanoparticle-peptide chip was constructed in each of the holes according to the method of Examples 1-(3).
CMIQ was dissolved in a minimum amount of distilled water to prepare solutions having varying CMIP concentrations of 0.1 nM, 0.5 nM, 1 nM, 5 nM, 10 nM, 50 nM, 100 nM, 500 nM, 1 μM and 5 μM, and each of the solutions was mixed with kinase, was introduced into the gold nanoparticle-peptide chip formed in the holes and was allowed to react at 30° C. for 2 hours. In this reaction, the concentration of ATP was 10 μM, and the concentration of kinase used was 1 U. Since the amount of the peptide attached to the surface would generally be constant, the ATP and kinase concentrations were determined as concentrations at which the maximum enzyme reaction occurred.
The choice of the peaks before and after phosphorylation is not limited thereto, and peaks changed by phosphorylation as shown in FIG. 2 may all be applied. […]
More specifically, the values of Ap1 and Ap2 in the two reference samples, that is, the gold nanoparticle-peptide chip before treatment with kinase and the gold nanoparticle-peptide chip after phosphorylation, would be different depending on the intensity of ions. Thus, to correct this difference, percent phosphorylation was calculated according to the following equation 1: […]
In order to calculate percent inhibition, substitution from the percent phosphorylation value calculated in the equation 1 is made. […] More specifically, after the phosphorylation level at each concentration of the inhibitor is calculated, percent inhibition can be calculated according to the following equation 2: […]

[1] = tested on: T1, Ac-IYAAPKKGGGGC (SEQ ID NO: 8)
T1 sequence: IYAAPKKGGGGC

[2] = tested on: T2, Ac-LRRASLGGGGC (SEQ ID NO: 9)
T2 sequence: LRRASLGGGGC

Row | Molecule | n (exponent of equation 3) (PKA kinase) | pIC50 (PKA kinase; equation 3) | Imax (percent inhibition at which the maximum inhibitory effect of the inhibitor occurs) (PKA kinase; equation 3) [%] | SIMS chemical imaging of the phosphorylated peptide ion on microarray spots [1] | change of the peptide mass peak (SIMS) on a chip carrying both peptides [1] | SIMS chemical imaging of the phosphorylated peptide ion on microarray spots (50 nM PKA, 100 uM ATP) [2] | change of the peptide mass peak (SIMS) on a chip carrying both peptides [2] | SIMS chemical imaging of the phosphorylated peptide ion on microarray spots (2 nM Abl, 100 uM ATP) [1] | phosphorylation of the chip-bound peptide, seen as a mass change in secondary ion mass spectrometry [1] | SIMS chemical imaging of the phosphorylated peptide ion on microarray spots [2]
1 | Cc1ncc2ccccc2c1C#N [CMIQ, 4-cyano-3-methylisoquinoline] | 0.9996 | ~7.06 | 100 |  |  |  |  |  |  | 
2 | PKA kinase |  |  |  | No cross-images of kinases against opposite peptides were observed | the AbI kinase and the PKA kinase did not influence the mass peaks of other peptides | kinase-treated spots (line 1 and 2) yielded strong ion mass images (i.e. [PAblH-SH-COOH+HPO3]+ or [PPKAH-SH-COOH+HPO3]+) | only the mass signals of peptides specific for the kinases were changed |  |  | 
3 | Abl kinase (Calbiochem) |  |  |  |  | only the mass signals of peptides specific for the kinases were changed |  | the AbI kinase and the PKA kinase did not influence the mass peaks of other peptides | kinase-treated spots (line 1 and 2) yielded strong ion mass images (i.e. [PAblH-SH-COOH+HPO3]+ or [PPKAH-SH-COOH+HPO3]+) | the phosphorylation of the peptide occurred | No cross-images of kinases against opposite peptides were observed
